Source: US20080227954A1 (ZEALAND PHARMA A S, published 2008)
Where no end group is shown, it is not given here.

How the values were obtained:
[1] = target: PTH (1-34)-antibody of the enzyme immunoassay EIAS(h)-6101 (Peninsula Laboratories, Inc.); assay: competitive EIA against biotinylated peptide for the PTH(1-34) antibody
[2] = target: T1, µ opioid receptor (bovine caudate nucleus synaptic membrane fraction) (bovine, UniProt P79350 1-401); assay: displacement of 1 nM [3H]DAMGO, bovine caudate synaptic membranes; column Time 0 hours
T1 construct: whole, on cells; Native receptor in brain membranes, not on intact cells; The tissue may hold other opioid receptors; also called µ-receptor; µ opioid receptors
T1 sequence (P79350 whole entry): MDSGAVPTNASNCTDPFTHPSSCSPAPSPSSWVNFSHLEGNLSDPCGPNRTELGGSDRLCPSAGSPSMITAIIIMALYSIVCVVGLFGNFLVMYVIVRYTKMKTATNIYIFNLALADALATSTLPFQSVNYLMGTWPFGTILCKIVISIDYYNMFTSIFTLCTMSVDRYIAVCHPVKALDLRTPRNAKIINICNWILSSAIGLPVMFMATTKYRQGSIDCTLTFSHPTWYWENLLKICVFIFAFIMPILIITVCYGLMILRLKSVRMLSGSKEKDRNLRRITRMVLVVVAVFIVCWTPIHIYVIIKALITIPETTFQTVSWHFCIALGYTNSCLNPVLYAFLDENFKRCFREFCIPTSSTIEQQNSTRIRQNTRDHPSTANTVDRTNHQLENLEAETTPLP
Description: (§1) Affinities for […] opioid receptor were determined using [³H](D-Ala²,N-Me-Phe⁴, Gly-ol⁵) Enkephalin (DAMGO) (1 nM) as described by Christensen, 1993, Pharmacol. Toxicol. 73:344-345. In short: Bovine brains were placed on ice within minutes after the slaughter. The caudate nuclei were dissected and homogenized in 20 vol. of 0.32 M sucrose. The homogenate was centrifuged at 2000 g for 10 min. The pellet was re-suspended in 10 vol. of 50 mM Tris-HCl buffer 7.4 and stored at −20° C. until use. The synaptic membrane fraction was incubated with 1 nM of [3H]DAMGO in the presence of various concentrations of test ligand. Non-specifically bound [3H]-DAMGO was established using 1 μM naloxone. Following 15 min. incubation at 36° C. samples were filtered through Whatman GF/C filters and washed with buffer. Radioactivity was determined using conventional techniques.

[3] = target: T1, µ opioid receptor (bovine caudate …); assay: displacement of 1 nM [3H]DAMGO, bovine caudate synaptic membranes; column Time 18 hours
[4] = target: T1, µ opioid receptor (bovine caudate …); assay: displacement of 1 nM [3H]DAMGO, bovine caudate synaptic membranes; column Time 0 hours; mean ± SD
Description: as §1

Binder	Relative recovery % [1]	IC50 [2]	IC50 [3]	IC50 [4]
H-KKKKKKSVSEIQLMHNLGKHLNSMERVEWLRKKLQDVHNF-OH [H-K6-PTH(1-34)-OH (Lys6-PTH(1-34)(Human)-OH)]	79.1%	–	–	–
H-YGGFLEEEEEE-OH [Leu-Enkephalin-(Glu)6-OH (H-Tyr-Gly-Gly-Phe-Leu-Glu6-OH)]	–	10000 nM	5000 nM	–
H-SVSEIQLMHNLGKHLNSMERVEWLRKKLQDVHNFKKKKKK-OH [H-hPTH(1-34)-K6-OH (PTH(1-34)(Human)-Lys6-OH)]	61.8%	–	–	–
H-YGGFLKKKKKK-OH (also called H-Leu-enkephalin-Lys6) [Leu-Enkephalin-(Lys)6-OH (H-Tyr-Gly-Gly-Phe-Leu-Lys6-OH)]	–	–	32 nM	17 nM
YGGFLKEKEKE-OH [Leu-Enkephalin-(Lys-Glu)3-OH]	–	–	900 nM	450 nM
SVSEIQLMHNLGKHLNSMERVEWLRKKLQDVHNF-OH [hPTH (1-34) (PTH(1-34)(Human)-OH)]	90.8%	–	–	–
